Amyloid nucleation score data for 97 substances are collected here from the supplement of paper PMC12042874.

± gives the uncertainty stated by the source.

A short description of this data set: amyloid nucleation score (Sup35N fusion, yeast selection) (log enrichment); library NNK3; higher = more nucleation; inactive = no reads after selection. Summed up:
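Random libraries were run with three technical output replicates. In each, psi-negative yeast expressing Sup35N fused to peptides of 20 random codons were induced 24 hours with 100 μM copper sulfate and grown 7 days at 30°C on medium lacking adenine and uracil, and input and output plasmid inserts were Illumina-sequenced. The nucleation score is the DiMSum log enrichment of output over input reads, centred on the mode score of non-aggregating sequences, and sequences under 100 input reads were excluded.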
In turn, FRNCRSWATCTAKARLHCPS yielded an amyloid nucleation score of 0.812 ± 0.16.

With FRSNGSIWVRGSETFTIAP, the amyloid nucleation score result was “inactive”.

In the case of FRSTCTFHCMERSRLRISPK, the amyloid nucleation score entry was “inactive”.

The substance FRVAAMAISGTISCQYFQGL yielded an amyloid nucleation score of 0.739 ± 0.17.

In the case of FRWHLCRFCWKRIFASTMLA, the amyloid nucleation score result is “inactive”.

Take FRWNNCGSMVRISTPSYSFL: the amyloid nucleation score result is “inactive”.

Substance FRYEILTI gave an amyloid nucleation score of 0.912 ± 0.12.

Substance FSALQWGSRTYIFVYSGNMS came in with an amyloid nucleation score of 0.658 ± 0.24.

Take FSAMTPSGRWHDRSRSDVIN: the amyloid nucleation score entry was “inactive”.

In the case of FSCDIMRPTKLGYSFDGLLL, the amyloid nucleation score entry is “inactive”.

Turning to FSCIMVRCYFR, the amyloid nucleation score result is “inactive”.

With FSCPDLGRGYVIS, the amyloid nucleation score result was “inactive”.

In the case of FSCSYTMGQCEASCVWQLKY, the amyloid nucleation score worked out at 0.36 ± 0.35.

As for FSFCIGRMCDLQALTASCLN, the amyloid nucleation score result was “inactive”.

FSGTIGILFFMTWSTVLPWG: the amyloid nucleation score entry is “inactive”.

With FSHGFSIYRLKKT, the amyloid nucleation score entry was “inactive”.

FSIAMFQANSGYASR came in with an amyloid nucleation score of 1.25 ± 0.14.

FSIIKFYWAEYWARRGEIVR: the amyloid nucleation score entry was “inactive”.

For FSKVTFHSCGIQCERQVKNN, the amyloid nucleation score entry was “inactive”.

Turning to FSLRLPYFA, the amyloid nucleation score entry is “inactive”.

Regarding FSLRNICSGLWILSVIAFPI, the amyloid nucleation score result is “inactive”.

For the substance FSNSRDSILWHRFGRICASY, the amyloid nucleation score came to 1.58 ± 0.12.

Consider FSPRKSLASLGITVVVDHCI, for which the amyloid nucleation score is -0.057 ± 0.81.

Take FSRFIRQ: the amyloid nucleation score was determined as 0.677 ± 0.15.

Take FSRSTTDVSINSGWKM: the amyloid nucleation score entry is “inactive”.

Regarding FSSIMSFVVYSRKLLEVTSP, the amyloid nucleation score entry was “inactive”.

Take FSSLGANYNHEILKGCGVGS: the amyloid nucleation score result is “inactive”.

Take FSSMF: the amyloid nucleation score result was “inactive”.

In the case of FSSMVNVYSLLKVFF, the amyloid nucleation score entry is “inactive”.

Take FSVANGHRVM: the amyloid nucleation score entry is “inactive”.

Consider FSVQAIWFVMSLNRFLGKGR, for which the amyloid nucleation score entry is “inactive”.

In the case of FSVRIKYI, the amyloid nucleation score entry is “inactive”.

Turning to FSVSDSFP, the amyloid nucleation score entry is “inactive”.

For FSWSLSLLHIPYKQWRGRWV, the amyloid nucleation score result is “inactive”.

Take FTAFMFS: the amyloid nucleation score entry was “inactive”.

As for FTCPASST, the amyloid nucleation score entry is “inactive”.

Take FTMSMYKGFRRCA: the amyloid nucleation score entry is “inactive”.

For FTNFDNFSFYASWLCG, the amyloid nucleation score entry was “inactive”.

FTNISVNNAVFVFVVCTAV: the amyloid nucleation score was 2.52 ± 0.054.

As to FTRSLETYYFGKNDVWFSLS, the amyloid nucleation score result was “inactive”.

As to FTRWIWFIVITSASCFKSFH, the amyloid nucleation score entry was “inactive”.

In the case of FTSLLAVYSIPLQWGATT, the amyloid nucleation score entry is “inactive”.

In the case of FTSQYIYDAIRRLRKMSIMS, the amyloid nucleation score result was “inactive”.

Consider FTWARETVPVVQNWFGTREV, for which the amyloid nucleation score result was “inactive”.

Consider FTWSVHKVDEVCHLLETGDA, for which the amyloid nucleation score result is “inactive”.

As for FTWYRR, the amyloid nucleation score entry is “inactive”.

As for FTYDCECALICINYT, the amyloid nucleation score is 0.448 ± 0.27.

Take FVCLKNFIFNRYKADGD: the amyloid nucleation score was 1.17 ± 0.19.

As for FVCLT, the amyloid nucleation score came out at 1.32 ± 0.13.

On to FVESSDLMRMSWFWWTGWDL, for which the amyloid nucleation score entry is “inactive”.

With FVGRFCMFNLGRCLPIVLGS, the amyloid nucleation score result is “inactive”.

Take FVKSVRYSL: the amyloid nucleation score was determined as 1.45 ± 0.064.

With FVLESFCRPLHSWVAGMGV, the amyloid nucleation score entry is “inactive”.

For FVLFAYWHARPNTISRGCDH, the amyloid nucleation score entry is “inactive”.

Substance FVMFAKASRGCTVSLCVYDV had an amyloid nucleation score of -0.37 ± 0.39.

Turning to FVQGYSFWYWVETYMFIRFV, the amyloid nucleation score entry was “inactive”.

As for FVRANYIWWNSWYLECYIGR, the amyloid nucleation score result is “inactive”.

In the case of FVRPFGRVFIFQKDFSIKVC, the amyloid nucleation score entry was “inactive”.

In turn, FVRTLCCLAYVWHYDLRYC registered an amyloid nucleation score of 0.406 ± 0.31.

In turn, FVSKHRVSTIWRVISHMRGG gave an amyloid nucleation score of -0.257 ± 0.98.

In the case of FVSLLWLRGDVVHALFIQWM, the amyloid nucleation score entry is “inactive”.

FVTRHLNFCM: the amyloid nucleation score result is “inactive”.

The substance FVTYCVRQETV yielded an amyloid nucleation score of 0.578 ± 0.15.

As to FVVGHENNFLKFANSLSRL, the amyloid nucleation score entry is “inactive”.

FVWLWVVISLNCSNNEFVFN returned an amyloid nucleation score of 2.51 ± 0.061.

In the case of FVYFKLGVMSPLQTTNTHLS, the amyloid nucleation score came to 0.804 ± 0.11.

As for FVYYANYQYFRPFYKMSWHQ, the amyloid nucleation score is 1.51 ± 0.078.

For the substance FWMMDYMYSVRMNFVWGYIR, the amyloid nucleation score result is “inactive”.

For the substance FWNEVMNRLPGLL, the amyloid nucleation score entry was “inactive”.

On to FWNSFHFVNNYWHVY, for which the amyloid nucleation score entry was “inactive”.

As for FWSFRPGHITLSIGHTRIAG, the amyloid nucleation score entry was “inactive”.

Take FWTGVACNTAGCCLGYESLR: the amyloid nucleation score result was “inactive”.

As to FWWVKC, the amyloid nucleation score result is “inactive”.

On to FYKLRHQVRTKISERYLPDS, for which the amyloid nucleation score result is “inactive”.

Consider FYLYPDVERLNFCIMVRHMF, for which the amyloid nucleation score entry is “inactive”.

With FYMWFMRTGLTKYPNGAIKV, the amyloid nucleation score entry was “inactive”.

For FYMYLTSVCA, the amyloid nucleation score result was “inactive”.

Turning to FYNFWWCI, the amyloid nucleation score was 1.87 ± 0.064.

As for FYPLICQRLKRSNIPGVWP, the amyloid nucleation score entry is “inactive”.

In turn, FYRAYSDYFWKTMFSYLGTS displayed an amyloid nucleation score of -0.619 ± 0.93.

For the substance FYRFFDSV, the amyloid nucleation score entry is “inactive”.

Substance FYRFISAMFYDWDSWIICGN had an amyloid nucleation score of 0.674 ± 0.12.

As for FYSAISVAAYIEMTWESVDM, the amyloid nucleation score entry was “inactive”.

Take FYSFFILSIGSSIPCLRSHM: the amyloid nucleation score entry is “inactive”.

In the case of FYTIGWGWNQKCGIFRHMVR, the amyloid nucleation score result is “inactive”.

In the case of FYVRVALRVSLLLWSGFTWV, the amyloid nucleation score result is “inactive”.

In turn, GADVSSHVKIFINYNLFSFI came in with an amyloid nucleation score of 2.55 ± 0.076.

On to GAFRTFYMLMWSYLCISGSV, for which the amyloid nucleation score result is “inactive”.

Consider GAIRLRSVNSNLGWLTAPLR, for which the amyloid nucleation score entry is “inactive”.

Take GAMLRVGV: the amyloid nucleation score entry was “inactive”.

For the substance GANFVCSVECRLVRRNSRYD, the amyloid nucleation score turned out to be 0.511 ± 0.21.

On to GARLAVW, for which the amyloid nucleation score entry was “inactive”.

Turning to GAVWFIRRRPKDRIRRVSLW, the amyloid nucleation score entry is “inactive”.

GAWVTATWAFDAVLFCPGKM: the amyloid nucleation score entry was “inactive”.

Substance GCFIGDVRMSMSCSKFLCIE gave an amyloid nucleation score of 0.381 ± 0.15.

As for GCKMVGRICSDIICSVGVME, the amyloid nucleation score came out at 0.988 ± 0.16.

In the case of GCKTREVLLYWLIMRPGGYS, the amyloid nucleation score result was “inactive”.
